Laboratory results published in patent US20060241051A1 (Takeda / Millennium, published 2006).
Like-named read-outs stand apart in the source and are kept apart here. Square brackets hold non-standard residues; d marks the D form. Ends that are not written are not given here. * marks the point of attachment. 2‑(indol-3-yl)ethylcarbamoyl = O=C(NCCc1c[nH]c2ccccc12)*; Arg(Me) = CNC(=N)NCCC[C@H](N)C(=O)O; d3Pal = N[C@H](Cc1cccnc1)C(=O)O; Cha = N[C@@H](CC1CCCCC1)C(=O)O; azaGly = NNC(=O)O

B1: Compound No. 242: des(1)-[D-Tyr2,D-Trp3,AzaGly7,Arg(Me)9]MS10 (peptide)
peptide: [dY][dW]NSF[azaGly]L[Arg(Me)]F-NH2
B2: Compound No. 204: [D-Tyr1, Ala7, Arg(Me)9]MS10 (peptide)
peptide: [dY]NWNSFAL[Arg(Me)]F-NH2
modifications: N-terminus assumed
SMILES: CNC(=N)NCCC[C@H](NC(=O)[C@H](CC(C)C)NC(=O)[C@H](C)NC(=O)[C@H](Cc1ccccc1)NC(=O)[C@H](CO)NC(=O)[C@H](CC(N)=O)NC(=O)[C@H](Cc1c[nH]c2ccccc12)NC(=O)[C@H](CC(N)=O)NC(=O)[C@H](N)Cc1ccc(O)cc1)C(=O)N[C@@H](Cc1ccccc1)C(N)=O
notes: printed structure is the same as that of Compound No. 173
B3: Compound No. 205: [D-Tyr1,Thr3,Arg(Me)9]MS10 (peptide)
peptide: [dY]NTNSFGL[Arg(Me)]F-NH2
modifications: N-terminus assumed
SMILES: CNC(=N)NCCC[C@H](NC(=O)[C@H](CC(C)C)NC(=O)CNC(=O)[C@H](Cc1ccccc1)NC(=O)[C@H](CO)NC(=O)[C@H](CC(N)=O)NC(=O)[C@@H](NC(=O)[C@H](CC(N)=O)NC(=O)[C@H](N)Cc1ccc(O)cc1)[C@@H](C)O)C(=O)N[C@@H](Cc1ccccc1)C(N)=O
B4: Compound No. 206: [D-Tyr1,Ile3,Arg(Me)9]MS10 (peptide)
peptide: [dY]NINSFGL[Arg(Me)]F-NH2
modifications: N-terminus assumed
SMILES: CC[C@H](C)[C@H](NC(=O)[C@H](CC(N)=O)NC(=O)[C@H](N)Cc1ccc(O)cc1)C(=O)N[C@@H](CC(N)=O)C(=O)N[C@@H](CO)C(=O)N[C@@H](Cc1ccccc1)C(=O)NCC(=O)N[C@@H](CC(C)C)C(=O)N[C@@H](CCCNC(=N)NC)C(=O)N[C@@H](Cc1ccccc1)C(N)=O
B5: Compound No. 208: [D-Tyr1,Thr4,Arg(Me)9]MS10 (peptide)
peptide: [dY]NWTSFGL[Arg(Me)]F-NH2
B6: Compound No. 210: [D-Tyr1,Ala4,Arg(Me)9]MS10 (peptide)
peptide: [dY]NWASFGL[Arg(Me)]F-NH2
modifications: N-terminus assumed
SMILES: CNC(=N)NCCC[C@H](NC(=O)[C@H](CC(C)C)NC(=O)CNC(=O)[C@H](Cc1ccccc1)NC(=O)[C@H](CO)NC(=O)[C@H](C)NC(=O)[C@H](Cc1c[nH]c2ccccc12)NC(=O)[C@H](CC(N)=O)NC(=O)[C@H](N)Cc1ccc(O)cc1)C(=O)N[C@@H](Cc1ccccc1)C(N)=O
B7: Compound No. 211: [D-Tyr1,Thr5,Arg(Me)9]MS10 (peptide)
peptide: [dY]NWNTFGL[Arg(Me)]F-NH2
modifications: N-terminus assumed
SMILES: CNC(=N)NCCC[C@H](NC(=O)[C@H](CC(C)C)NC(=O)CNC(=O)[C@H](Cc1ccccc1)NC(=O)[C@@H](NC(=O)[C@H](CC(N)=O)NC(=O)[C@H](Cc1c[nH]c2ccccc12)NC(=O)[C@H](CC(N)=O)NC(=O)[C@H](N)Cc1ccc(O)cc1)[C@@H](C)O)C(=O)N[C@@H](Cc1ccccc1)C(N)=O
B8: Compound No. 212: [D-Tyr1,Ala5,Arg(Me)9]MS10 (peptide)
peptide: [dY]NWNAFGL[Arg(Me)]F-NH2
modifications: N-terminus assumed
SMILES: CNC(=N)NCCC[C@H](NC(=O)[C@H](CC(C)C)NC(=O)CNC(=O)[C@H](Cc1ccccc1)NC(=O)[C@H](C)NC(=O)[C@H](CC(N)=O)NC(=O)[C@H](Cc1c[nH]c2ccccc12)NC(=O)[C@H](CC(N)=O)NC(=O)[C@H](N)Cc1ccc(O)cc1)C(=O)N[C@@H](Cc1ccccc1)C(N)=O
B9: Compound No. 213: [D-Tyr1,Val8,Arg(Me)9]MS10 (peptide)
peptide: [dY]NWNSFGV[Arg(Me)]F-NH2
B10: Compound No. 214: [D-Tyr1,Gln2,Arg(Me)9]MS10 (peptide)
peptide: [dY]QWNSFGL[Arg(Me)]F-NH2
modifications: N-terminus assumed
SMILES: CNC(=N)NCCC[C@H](NC(=O)[C@H](CC(C)C)NC(=O)CNC(=O)[C@H](Cc1ccccc1)NC(=O)[C@H](CO)NC(=O)[C@H](CC(N)=O)NC(=O)[C@H](Cc1c[nH]c2ccccc12)NC(=O)[C@H](CCC(N)=O)NC(=O)[C@H](N)Cc1ccc(O)cc1)C(=O)N[C@@H](Cc1ccccc1)C(N)=O
B11: Compound No. 215: [D-Tyr1,Thr2,Arg(Me)9]MS10 (peptide)
peptide: [dY]TWNSFGL[Arg(Me)]F-NH2
modifications: N-terminus assumed
SMILES: CNC(=N)NCCC[C@H](NC(=O)[C@H](CC(C)C)NC(=O)CNC(=O)[C@H](Cc1ccccc1)NC(=O)[C@H](CO)NC(=O)[C@H](CC(N)=O)NC(=O)[C@H](Cc1c[nH]c2ccccc12)NC(=O)[C@@H](NC(=O)[C@H](N)Cc1ccc(O)cc1)[C@@H](C)O)C(=O)N[C@@H](Cc1ccccc1)C(N)=O
B12: Compound No. 229: [D-Tyr1,Val3,Arg(Me)9]MS10 (peptide)
peptide: [dY]NVNSFGL[Arg(Me)]F-NH2
modifications: N-terminus assumed
SMILES: CNC(=N)NCCC[C@H](NC(=O)[C@H](CC(C)C)NC(=O)CNC(=O)[C@H](Cc1ccccc1)NC(=O)[C@H](CO)NC(=O)[C@H](CC(N)=O)NC(=O)[C@@H](NC(=O)[C@H](CC(N)=O)NC(=O)[C@H](N)Cc1ccc(O)cc1)C(C)C)C(=O)N[C@@H](Cc1ccccc1)C(N)=O
B13: Compound No. 233: [D-Tyr1,Ile3,AzaGly7,Arg(Me)9]MS10 (peptide)
peptide: [dY]NINSF[azaGly]L[Arg(Me)]F-NH2
modifications: N-terminus assumed
SMILES: CC[C@H](C)[C@H](NC(=O)[C@H](CC(N)=O)NC(=O)[C@H](N)Cc1ccc(O)cc1)C(=O)N[C@@H](CC(N)=O)C(=O)N[C@@H](CO)C(=O)N[C@@H](Cc1ccccc1)C(=O)NNC(=O)N[C@@H](CC(C)C)C(=O)N[C@@H](CCCNC(=N)NC)C(=O)N[C@@H](Cc1ccccc1)C(N)=O
B14: Compound No. 234: [D-Tyr1,Val3,AzaGly7,Arg(Me)9]MS10 (peptide)
peptide: [dY]NVNSF[azaGly]L[Arg(Me)]F-NH2
modifications: N-terminus assumed
SMILES: CNC(=N)NCCC[C@H](NC(=O)[C@H](CC(C)C)NC(=O)NNC(=O)[C@H](Cc1ccccc1)NC(=O)[C@H](CO)NC(=O)[C@H](CC(N)=O)NC(=O)[C@@H](NC(=O)[C@H](CC(N)=O)NC(=O)[C@H](N)Cc1ccc(O)cc1)C(C)C)C(=O)N[C@@H](Cc1ccccc1)C(N)=O
B15: Compound No. 235: [D-Tyr1,Ala3,AzaGly7,Arg(Me)9]MS10 (peptide)
peptide: [dY]NANSF[azaGly]L[Arg(Me)]F-NH2
modifications: N-terminus assumed
SMILES: CNC(=N)NCCC[C@H](NC(=O)[C@H](CC(C)C)NC(=O)NNC(=O)[C@H](Cc1ccccc1)NC(=O)[C@H](CO)NC(=O)[C@H](CC(N)=O)NC(=O)[C@H](C)NC(=O)[C@H](CC(N)=O)NC(=O)[C@H](N)Cc1ccc(O)cc1)C(=O)N[C@@H](Cc1ccccc1)C(N)=O
B16: Compound No. 217: des(1)-[D-Tyr2,Arg(Me)9]MS10 (peptide)
peptide: [dY]WNSFGL[Arg(Me)]F-NH2
B17: Compound No. 216: des(1)-[D-Asn2,Arg(Me)9]MS10 (peptide)
peptide: [dN]WNSFGL[Arg(Me)]F-NH2
B18: Compound No. 228: des(1)-[D-Tyr2,Ile3,Arg(Me)9]MS10 (peptide)
peptide: [dY]INSFGL[Arg(Me)]F-NH2
B19: Compound No. 241: des(1)-[D-Tyr2,Thr3,AzaGly7,Arg(Me)9]MS10 (peptide)
peptide: [dY]TNSF[azaGly]L[Arg(Me)]F-NH2
B20: Compound No. 279: des(1-3)-2-(Indol-3-yl)ethylcarbamoyl-[AzaGly7,Arg(Me)9]MS10 (peptide)
peptide: {2‑(indol-3-yl)ethylcarbamoyl}-NSF[azaGly]L[Arg(Me)]F-NH2
SMILES: CNC(=N)NCCC[C@H](NC(=O)[C@H](CC(C)C)NC(=O)NNC(=O)[C@H](Cc1ccccc1)NC(=O)[C@H](CO)NC(=O)[C@H](CC(N)=O)NC(=O)NCCc1c[nH]c2ccccc12)C(=O)N[C@@H](Cc1ccccc1)C(N)=O
B21: Compound No. 281: [D-Tyr1,Pya(2)6,Arg(Me)9]MS10 (peptide)
peptide: YNWNSXGLRF
modifications: D-Tyr1; Pya(2)6; Arg(Me)9; C-terminal amide
B22: Compound No. 290: [D-Pya(3)1,D-Asn2,Cha3,AzaGly7,Arg(Me)9]MS10 (peptide)
peptide: [d3Pal][dN][Cha]NSF[azaGly]L[Arg(Me)]F-NH2
modifications: N-terminus assumed
SMILES: CNC(=N)NCCC[C@H](NC(=O)[C@H](CC(C)C)NC(=O)NNC(=O)[C@H](Cc1ccccc1)NC(=O)[C@H](CO)NC(=O)[C@H](CC(N)=O)NC(=O)[C@H](CC1CCCCC1)NC(=O)[C@@H](CC(N)=O)NC(=O)[C@H](N)Cc1cccnc1)C(=O)N[C@@H](Cc1ccccc1)C(N)=O

Tests used:
[1] = molecular target: T1, human OT7T175 (metastin receptor) (human, UniProt Q969F8 1-398); assay: cell-based or functional assay
T1 sequence (Q969F8 whole entry L364H): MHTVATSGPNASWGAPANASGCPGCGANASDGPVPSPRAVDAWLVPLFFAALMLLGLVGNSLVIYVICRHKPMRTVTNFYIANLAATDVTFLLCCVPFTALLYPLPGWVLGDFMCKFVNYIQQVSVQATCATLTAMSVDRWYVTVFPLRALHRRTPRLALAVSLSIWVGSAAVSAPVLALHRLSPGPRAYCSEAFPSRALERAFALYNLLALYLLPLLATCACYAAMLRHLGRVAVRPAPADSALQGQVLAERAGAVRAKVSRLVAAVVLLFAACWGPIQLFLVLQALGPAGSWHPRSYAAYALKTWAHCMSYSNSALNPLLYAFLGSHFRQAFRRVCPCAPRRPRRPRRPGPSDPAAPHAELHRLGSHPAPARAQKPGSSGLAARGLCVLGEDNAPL

[2] = molecular target: T1, human OT7T175 (metastin receptor); assay: FMAT competition with Cy-5-labeled metastin (40-54), hOT7T175-expressed CHO cells
Description: h0T7T175-Expressed CHO cells were cultured in MEM-α medium (nucleic acid-free) containing 10% dialyzed serum. The medium was removed and the adherent cells were washed with PBS. Then, PBS containing 5 mM EDTA was added and the cells were scraped from a flask with a cell scraper. […] To each well of a 96-Well Black Clear Bottom Plate (Applied Biosystems, Inc.), 10 μL of assay buffer containing 1% dimethylsulfoxide was added to examine total binding, 10 μL of 10 μM non-labeled peptide (having the same amino acid sequence as that of the labeled one) solution diluted with assay buffer to examine non-specific binding, and 10 μL of a test compound diluted with assay buffer to examine the binding inhibition activity of the test compound, respectively. Furthermore, 90 μL each of the cell suspension was dispensed to each well. […] The specific binding is a value obtained by subtracting the non-specific binding from the total binding.

[3] = molecular target: T1, human OT7T175 (metastin receptor); assay: cell-based or functional assay; remark: listed apart in the source

Row | Binder | intracellular Ca ion level-increasing activity (FLIPR) [1] | IC50 [2] [nM] | intracellular Ca ion level-increasing activity (FLIPR) [3]
1 | B1 | 2 specific activity to metastin (1-54) | 70 | –
2 | B2 | 5 specific activity to metastin (1-54) | 680 | –
3 | B3 | 10 specific activity to metastin (1-54) | 260 | –
4 | B4 | 10 specific activity to metastin (1-54) | 85 | –
5 | B5 | 1 specific activity to metastin (1-54) | 830 | –
6 | B6 | 1 specific activity to metastin (1-54) | 730 | –
7 | B7 | 10 specific activity to metastin (1-54) | 44 | –
8 | B8 | 10 specific activity to metastin (1-54) | 36 | –
9 | B9 | 2 specific activity to metastin (1-54) | 190 | –
10 | B10 | 10 specific activity to metastin (1-54) | 390 | –
11 | B11 | 10 specific activity to metastin (1-54) | 250 | –
12 | B12 | 1 specific activity to metastin (1-54) | 130 | –
13 | B13 | 1 specific activity to metastin (1-54) | 23 | –
14 | B14 | 1 specific activity to metastin (1-54) | 47 | –
15 | B15 | 1 specific activity to metastin (1-54) | 100 | –
16 | B16 | 20 specific activity to metastin (1-54) | 250 | –
17 | B17 | 1 specific activity to metastin (1-54) | 700 | –
18 | B18 | 5 specific activity to metastin (1-54) | 40 | –
19 | B19 | 1 specific activity to metastin (1-54) | 56 | –
20 | B20 | – | 29 | 5 specific activity to metastin (1-54)
21 | B21 | – | 230 | 0.5 specific activity to metastin (1-54)
22 | B22 | – | 1.4 | 1 specific activity to metastin (1-54)
